T1: PAR-2 (Homo sapiens, UniProt P55085)
T1 construct: endogenous in cells; host or cells: HUVEC or HT29 colon carcinoma cells
T1 sequence (P55085 26-397): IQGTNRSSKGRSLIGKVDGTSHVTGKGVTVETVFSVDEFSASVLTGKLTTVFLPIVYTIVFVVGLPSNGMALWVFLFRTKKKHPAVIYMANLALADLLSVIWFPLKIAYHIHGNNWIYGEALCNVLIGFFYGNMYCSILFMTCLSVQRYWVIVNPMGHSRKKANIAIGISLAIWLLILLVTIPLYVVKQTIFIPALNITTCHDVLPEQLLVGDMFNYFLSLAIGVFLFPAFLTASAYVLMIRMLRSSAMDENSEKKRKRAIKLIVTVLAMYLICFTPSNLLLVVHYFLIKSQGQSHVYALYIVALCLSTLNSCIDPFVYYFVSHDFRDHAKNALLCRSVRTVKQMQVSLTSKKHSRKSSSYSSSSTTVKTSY

T2: PAR-1 (Homo sapiens, UniProt P25116)
T2 construct: endogenous in cells; host or cells: HUVEC or HT29 colon carcinoma cells
T2 sequence (P25116 22-425): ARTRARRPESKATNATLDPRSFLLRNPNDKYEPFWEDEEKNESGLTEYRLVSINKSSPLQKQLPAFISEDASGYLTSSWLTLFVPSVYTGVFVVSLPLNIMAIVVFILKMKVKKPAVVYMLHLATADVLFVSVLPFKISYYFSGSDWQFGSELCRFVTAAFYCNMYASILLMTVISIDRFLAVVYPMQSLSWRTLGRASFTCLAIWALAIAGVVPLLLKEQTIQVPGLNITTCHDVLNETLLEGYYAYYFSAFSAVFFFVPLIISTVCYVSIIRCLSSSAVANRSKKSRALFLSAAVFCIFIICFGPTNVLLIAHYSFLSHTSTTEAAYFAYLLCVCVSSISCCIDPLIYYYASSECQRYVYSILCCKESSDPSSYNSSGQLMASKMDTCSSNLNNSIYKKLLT

T3: Proteinase activated receptor-2 (PAR-2) (UniProt P55085 37-397, limits assumed)
T3 sequence (looked up): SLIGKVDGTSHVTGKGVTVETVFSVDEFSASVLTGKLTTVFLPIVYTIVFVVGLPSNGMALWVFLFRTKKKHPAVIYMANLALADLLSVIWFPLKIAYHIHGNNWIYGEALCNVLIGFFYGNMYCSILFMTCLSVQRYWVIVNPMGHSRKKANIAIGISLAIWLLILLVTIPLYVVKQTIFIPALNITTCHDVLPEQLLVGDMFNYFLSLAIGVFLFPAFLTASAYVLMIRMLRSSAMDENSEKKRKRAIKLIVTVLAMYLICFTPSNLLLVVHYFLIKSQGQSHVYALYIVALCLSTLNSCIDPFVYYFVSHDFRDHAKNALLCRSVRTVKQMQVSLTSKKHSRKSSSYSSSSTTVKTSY


Tests used:
[1] = target: T1, PAR-2; assay: Inhibition of P2AP (SLIGKV)-stimulated PAR-2 signaling in cells pretreated with antagonist; assay type: cell-based; conditions: result in words; cells pretreated with the substance, then P2AP
Protocol: (§1) Confluent HUVECs or HT29 colon carcinoma cells were loaded for 30-60 minutes with the fluorescent dye Fluo-4. Final concentration 4 uM Fluo-4, 0.02% pluronic acid in physiological buffer. Cells were then washed with assay buffer, (HBSS containing 1 mM CaCl2, 1 mM MgSO4, and 2.5 mM probenecid). Cells were stimulated with various doses of PAR-2 activating peptide, PAR-1 activating peptide or ATP.
(§2) Fluorescence was monitored using a Wallac 1470 fluorescent plate reader. (See Al-ani et. al Journal of Pharmacology and Experimental Therapeutics 290:2, 753-760)
In order to assess the potential of peptides selected above to block PAR-2 signaling, cells were pretreated with potential antagonist peptides for a predetermined amount of time and were subsequently treated with P2AP. Methods and protocols used were the same as those described in Example 1.

[2] = test system: ATP signaling (G-protein coupled receptors); assay: Activation study with ATP on cells pretreated with antagonist; assay type: cell-based; conditions: cells pretreated with the substance
Protocol: as §1, §2
(§3) Both of these molecules signal through G-protein coupled receptors, and PAR-1 is very highly homologous to PAR-2, to the degree that the PAR-1 agonist peptide can signal through PAR-2 at high concentrations.

[3] = target: T2, PAR-1; assay: Activation study with PAR-1 activation peptide SFLLRN on cells pretreated with antagonist; assay type: cell-based; conditions: cells pretreated with the substance
Protocol: as §1, §2, §3

[4] = test system: Lewis lung carcinoma; assay: Lewis lung carcinoma (LLC) experimental metastatic model; assay type: in vivo, mice; conditions: metastatic tumor growth studies, FIG. 16
Protocol: In this tumor growth model, treatments were initiated on day 3 post inoculation, after tumor cells had homed to the lung, and started growing. […] At a dose of 4 mg/day tumor growth was inhibited by 75%. […] C57/B16 mice were injected i.v. with Lewis lung carcinoma. 3 days later, treatment of lung tumors was started with i.p. LIGK (SEQ ID NO:1) for 11 days.

[5] = Arthritis in mice (anti-collagen II antibody plus LPS), foot thickness; assay type: in vivo; conditions: 200 mg/kg/day i.p. for 7 days, Balb/c mice, FIG. 19
Protocol: On day 0, Balb/c mice were injected IV with the 1 -2 mg 1B11 monoclonal anti-collagen II antibody. On day 1, animals were injected i.p with 20 ug LPS, and treatment with PAR-2 antagonists (200 mg/kg/day i.p). for 7 days is initiated. After treatment was completed, disease is quantified by measuring the thickness (swelling) in both feet of the mouse. This was compared to untreated mice. (p<0.05 vs. vehicle control)

[6] = target: T1, PAR-2; assay: PAR signalling activity: calcium mobilization (Fluo-4) in response to peptides; assay type: cell-based; conditions: result in words, FIG. 4A-4C
Protocol: as §1, §2
Calcium mobilization curves of the PAR-2 agonist SLIGKV (SEQ ID NO:25) compared with two truncated molecules LIGK (SEQ ID NO:1) and LIGKV (SEQ ID NO:2) are provided in FIG. 4A. […] Similar studies were performed on alanine substituted SLIGKV (SEQ ID NO:25) peptides (FIGS. 4B and 4C).

[7] = target: T3, Proteinase activated receptor-2 (PAR-2); assay: cell-based or functional assay

antagonist activity on PAR-2 signaling [1]	Molecule	calcium mobilization / signaling activity [6]	further results
extremely potent inhibitor	Br.CC(C)CC(=O)N1CCN(C(=O)CCCCCN)CC1 [ENMD-547]		inhibitory effect on signaling by ATP [2]: no inhibitory effects; inhibitory effect on signaling by PAR-1 (activation peptide SFLLRN) [3]: no inhibitory effects; antitumor activity relative to the parental LIGK molecule [4]: approximately five fold; inflammation (arthritis, foot swelling) [5]: inhibited inflammation
	SLIGKA [alanine substituted SLIGKV peptide]	robust signaling activity	
	SLIAKV [alanine substituted SLIGKV peptide]	robust signaling activity	
demonstrated antagonist activity	LIGKV	Neither truncated molecule was able to induce calcium mobilization	
	SLIGKV (listed as Homo sapiens) [reference compound]	typical spike of calcium release followed by degradation of signal	
	LIGK [LIGK (SEQ ID NO:1)]		IC50 of inhibition of PAR-2 signaling (calcium mobilization stimulated by SLIGKV) [7]: < 500 µM

Reference: patent publication US20040266687A1, “Compositions and methods comprising protein activated receptor antagonists” (priority 2002, published 2004)
